Measurements from paper PMC11063129.

Target: T1, Twinkle (mitochondrial DNA helicase) (human, UniProt Q96RR1 43-684, del1-42)
T1 sequence: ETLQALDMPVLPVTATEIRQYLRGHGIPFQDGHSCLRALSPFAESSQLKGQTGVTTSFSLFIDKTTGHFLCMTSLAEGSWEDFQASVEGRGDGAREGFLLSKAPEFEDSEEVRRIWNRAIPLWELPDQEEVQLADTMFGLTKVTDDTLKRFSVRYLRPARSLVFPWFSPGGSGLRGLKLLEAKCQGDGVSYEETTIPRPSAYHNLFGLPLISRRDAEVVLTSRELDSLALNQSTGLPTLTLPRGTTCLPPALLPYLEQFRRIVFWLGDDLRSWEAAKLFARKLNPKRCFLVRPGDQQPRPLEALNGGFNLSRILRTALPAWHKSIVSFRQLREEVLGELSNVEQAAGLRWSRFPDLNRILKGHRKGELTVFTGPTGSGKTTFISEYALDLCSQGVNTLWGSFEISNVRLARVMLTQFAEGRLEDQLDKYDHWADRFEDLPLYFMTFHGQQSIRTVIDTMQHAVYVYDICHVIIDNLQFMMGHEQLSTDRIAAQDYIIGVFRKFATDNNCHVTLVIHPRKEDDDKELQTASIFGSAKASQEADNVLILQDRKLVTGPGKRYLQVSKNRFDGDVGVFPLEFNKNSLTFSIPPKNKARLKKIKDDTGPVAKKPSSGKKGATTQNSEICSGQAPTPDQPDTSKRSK
Assay: FAM fluorescence quenching titration

## TTTTTTTTTTTTTTTTTTTTTT (ssDNA) [BHQ1-dT22]
  Kd: 27.7 ± 3.8 nM
